Patent publication WO2020228604A1 (dated 2020)

T1: human TROP-2 protein with His tag (TROP-2-His) (human, UniProt P09758 27-274)
T1 construct: Bought reagent (Sino Biological 10428-H08H); also called TROP-2His protein; human TROP-2 His antigen; not shown: His tag
T1 sequence (looked up): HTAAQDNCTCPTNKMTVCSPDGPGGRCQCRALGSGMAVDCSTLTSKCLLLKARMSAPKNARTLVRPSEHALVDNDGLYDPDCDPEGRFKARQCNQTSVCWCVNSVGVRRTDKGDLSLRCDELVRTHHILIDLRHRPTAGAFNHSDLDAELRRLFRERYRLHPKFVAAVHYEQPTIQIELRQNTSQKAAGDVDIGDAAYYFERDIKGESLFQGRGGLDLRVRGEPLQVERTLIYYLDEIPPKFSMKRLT

B1: murine monoclonal antibody M1 (antibody, V domains shown)
VH: QVQLQQPGAELVRPGASVKLSCRASGYTFTNYWMNWVKQRPEQGLEWIGRIDPNDSETHYNQKFKDRAILTVDKASNTAYMQLSGLTSEDSAVHYCARSGFGSTYWFFDVWGAGTTVTVSS
VL: DIVMTQSHKFMSTSVGDRVSITCKASQDVSTAVAWYQQKPGQSPKLLIYSASYRYTGVPDRFAGSGYGTDFTFTISSVQTEDLTVYHCQQHYSTPLTFGPGTRLELK
B2: humanized anti-TROP-2 antibody HU1 (antibody, V domains shown)
VH: QVQLVQSGAEVKKPGSSVKVSCKASGYTFTNYWMNWVRQAPGKGLEWVGRIDPNDSETHYNQKFKDRFTITRDNSKNTLYLQMNSLRAEDTAVYYCARSGFGSTYWFFDVWGQGTTVTVSS
VL: AIRMTQSPFSLSASVGDRVTITCKASQDVSTAVAWYLQKPGQSPQLLIYSASYRYTRIPPRFSGSGYGTDFTLTINNIESEDAAYYFCQQHYSTPLTFGQGTRLEIK
B3: humanized anti-TROP-2 antibody HU6 (antibody, V domains shown)
VH: EVQLLESGGGLVQPGGSLRLSCAASGFTVSNYWMNWVRQAPGKGLEWMGRIDPNDSETHYNQKFKDRVTISVDKSKNQFSLKLSSVTAADTAVYYCARSGFGSTYWFFDVWGQGTTVTVSS
VL: DVVMTQSPLSLPVTLGQPASISCKASQDVSTAVAWYQQKPGKAPKLFIYSASYRYTGVPSRFSGSGSGTDFTLTISSLQPEDFATYYCQQHYSTPLTFGQGTRLEIK
B4: humanized anti-TROP-2 antibody HU6DL (antibody, V domains shown)
VH: B3 VH
VL: B3 VL
B5: humanized anti-TROP-2 antibody HU10 (antibody, V domains shown)
VH: B2 VH
VL: B2 VL

Tests used:
[1] = target: T1, human TROP-2 protein with His tag …; assay: indirect ELISA, TROP-2-His coated at 1 ug/ml
[2] = target: T1, human TROP-2 protein with His tag …; assay: competition ELISA; competitor: coated hRS7; test antibody diluted to 100 ug/ml and added with TROP-2-His

Binder	EC50 [1]	inhibition rate [2]
B1	0.56 nM	–
B2	–	13.5%
B3	–	6.7%
B4	–	5.9%
B5	–	10.2%
